Target: human CCR8 (human) (UniProt P51685)
Test: cell-based or functional assay

Sequence of human CCR8 (human) (P51685 whole entry): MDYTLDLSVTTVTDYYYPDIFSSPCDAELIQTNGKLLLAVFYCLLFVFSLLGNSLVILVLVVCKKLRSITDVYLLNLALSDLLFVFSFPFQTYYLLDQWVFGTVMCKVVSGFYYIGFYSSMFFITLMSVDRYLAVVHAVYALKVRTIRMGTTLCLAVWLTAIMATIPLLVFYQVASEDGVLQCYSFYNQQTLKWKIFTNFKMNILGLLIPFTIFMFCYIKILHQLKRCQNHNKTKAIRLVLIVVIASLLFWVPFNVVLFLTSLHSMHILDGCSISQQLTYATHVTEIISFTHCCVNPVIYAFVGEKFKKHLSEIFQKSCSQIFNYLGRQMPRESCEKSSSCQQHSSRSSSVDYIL

B1: m10A11 (chimera) (antibody, from another filing, V domains shown)
VH: EVQLVESGGRLVQPKGSLKLSCAASGFAFNTYALYWIRQAPGKGLEWVARIRSKSNNYATYYADSVKDRFTISRDDSQSMLYLQMNNLKTEDTAMYYCVRARFYYSDYGYAMDYWGQGTSVTVSS
VL: DIVMTQAAPSVPVTPGESVSISCRSSKSLLHSNGNTYLYWFLQRPGQSPQLLIYRMSNLASGVPDRFSGSGSGTAFTLRISRVEAEDVGVYYCMQHLEYPLTFGAGTKLELKR
- ADCC EC50 (nM), NK92-CD16A effectors, HEK293-hCCR8 targets, LDH release: 0.12 nM
- ADCC EC50 (nM), PBMC FcγRIIIA158F/F effectors, HEK293-hCCR8 targets: 0.19 nM
- ADCC EC50 (nM), PBMC FcγRIIIA158V/V effectors, HEK293-hCCR8 targets: 0.05 nM
- ADCC half-maximal effective concentration (EC50), NK92-CD16A effectors, HEK293-hCCR8 targets: 0.03 nM
- ADCC maximal lysis rate, NK92-CD16A effectors, HEK293-hCCR8 targets: 30%
- ADCC maximal lysis rate, PBMC FcγRIIIA158F/F effectors, HEK293-hCCR8 targets: 66%
- ADCC maximal lysis rate, PBMC FcγRIIIA158V/V effectors, HEK293-hCCR8 targets: 68%

B2: h10A11 (antibody, from another filing, V domains shown)
VH: EVQLVESGGALVKPGGSLRLSCAASGFTFSTYALYWVRQAPGKGLEWVGRIRSKSNNYATYYADSVKDRFTISRDDSKNTLYLQMNSLKTEDTAVYYCTRARFYYSDYGYAMDYWGQGTLVTVSS
VL: DIVMTQSPDSLAVSLGERATINCRSSKSLLHSNGNTYLYWYQQKPGQPPKLLIYRMSNLASGVPDRFSGSGSGTDFTLTISSLQAEDVAVYYCMQHLEYPLTFGQGTKLEIKR
- ADCC EC50 (nM), PBMC FcγRIIIA158F/F effectors, HEK293-hCCR8 targets: 0.21 nM
- ADCC EC50 (nM), PBMC FcγRIIIA158V/V effectors, HEK293-hCCR8 targets: 0.03 nM
- ADCC maximal lysis rate, PBMC FcγRIIIA158F/F effectors, HEK293-hCCR8 targets: 61%
- ADCC maximal lysis rate, PBMC FcγRIIIA158V/V effectors, HEK293-hCCR8 targets: 63%

Source: US20250215097A1
